# Legend:
# LexA-Rab10 Q68L (mouse) = LexA-Rab10 Q68L (mouse) (UniProt P61027); assay: two-hybrid
# [1] = target: LexA-Rab10 wild-type (mouse) (UniProt P61027); assay: two-hybrid
3-aminotriazole concentration that suppresses growth (LexA-Rab10 Q68L (mouse)),3-aminotriazole concentration that suppresses growth [1],Molecule
1 mM,–,GAD-Exoc6 CT (from UniProt Q8TAG9-1 384-797) (domain or fragment)
50 mM,1 to 5 mM,GAD-Exoc6b CT (domain or fragment) SDPNLVLDLKNLIVLFADTLQVYGFPVNQLFDMLLEIRDQYSETLLKKWAGIFRNILDSDNYSPIPVTSEEMYKKVVGQFPFQDIELEKQPFPKKFPFSEFVPKVYNQIKEFIYACLKFSEDLHLSSTEVDDMIRKSTNLLLTRTLSNSLQNVIKRKNIGLTELVQIIINTTHLEKSCKYLEEFITNITNVLPETVHTTKLYGTTTFKDARHAAEEEIYTNLNQKIDQFLQLADYDWMTGDLGNKASDYLVDLIAFLRSTFAVFTHLPGKVAQTACMSACKHLATSLMQLLLEAEVRQLTLGALQQFNLDVRECEQFARSGPVPGFQEDTLQLAFIDLRQLLDLFIQWDWSTYLADYGQPNCKYLRVNPVTALTLLEKMKDTSRKNNMFAQFRKNERDKQKLIDTVAKQLRGLI
